Results: publication PMC10817852, “Vascular injury activates the ELK1/SND1/SRF pathway to promote vascular smooth muscle cell proliferative phenotype and neointimal hyperplasia”

Assays:
SRF (1-266) = target: T1, SRF (1-266) (UniProt P11831 1-266); experiment: EMSA; unlabeled probe (200-fold) diminished binding; Beyotime GS009 chemiluminescent EMSA kit binding buffer (composition, salt and pH not given), 20 fmol biotin probe, 0.1 ug protein, 10 min at room temperature; conditions: protein: recombinant; (GST fusions described); chain copies: 2; label: biotin; blunt
T1 sequence: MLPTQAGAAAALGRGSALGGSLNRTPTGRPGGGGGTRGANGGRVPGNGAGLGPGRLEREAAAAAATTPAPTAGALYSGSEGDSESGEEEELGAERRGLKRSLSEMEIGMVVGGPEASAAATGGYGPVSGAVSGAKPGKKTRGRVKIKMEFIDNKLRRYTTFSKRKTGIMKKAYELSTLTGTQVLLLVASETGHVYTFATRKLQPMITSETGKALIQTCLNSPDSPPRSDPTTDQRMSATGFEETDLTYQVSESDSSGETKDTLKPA

SND1 (1-660) = target: T2, SND1 (1-660) (UniProt Q78PY7 1-660); experiment: EMSA; SND1 alone; Beyotime GS009 chemiluminescent EMSA kit binding buffer (composition, salt and pH not given), 20 fmol biotin probe, 0.1 ug protein, 10 min at room temperature; conditions: protein: recombinant; label: biotin; blunt
T2 sequence: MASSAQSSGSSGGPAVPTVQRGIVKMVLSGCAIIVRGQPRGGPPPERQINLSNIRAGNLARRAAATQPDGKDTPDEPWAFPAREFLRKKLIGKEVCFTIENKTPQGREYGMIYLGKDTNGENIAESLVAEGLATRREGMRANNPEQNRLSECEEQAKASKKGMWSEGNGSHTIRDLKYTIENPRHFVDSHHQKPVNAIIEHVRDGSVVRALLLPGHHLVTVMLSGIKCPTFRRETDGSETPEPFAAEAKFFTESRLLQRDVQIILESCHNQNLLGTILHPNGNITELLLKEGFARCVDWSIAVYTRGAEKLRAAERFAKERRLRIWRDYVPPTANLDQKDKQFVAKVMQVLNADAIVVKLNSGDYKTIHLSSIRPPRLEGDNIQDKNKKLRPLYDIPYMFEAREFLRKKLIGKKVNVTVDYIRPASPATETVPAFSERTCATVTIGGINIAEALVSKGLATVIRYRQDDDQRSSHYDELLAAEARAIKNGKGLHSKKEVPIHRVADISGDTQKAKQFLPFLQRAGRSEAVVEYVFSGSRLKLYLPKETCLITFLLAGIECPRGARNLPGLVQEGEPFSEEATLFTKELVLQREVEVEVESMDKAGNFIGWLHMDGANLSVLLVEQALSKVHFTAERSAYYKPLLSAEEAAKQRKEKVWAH

B1: Fos CArG probe (dsDNA)
DNA 1: CCATATTAGGCCATATTAGGCCATATTAGGCCATATTAGGCCATATTAGG
DNA 2: CCTAATATGGCCTAATATGGCCTAATATGGCCTAATATGGCCTAATATGG
SRF (1-266)
  binding result: binds
SND1 (1-660)
  binding result: no binding
